Laboratory results taken from patent publication EP4703474A1, “ANTI-LRRC15 ANTIBODY” (priority 2023, dated 2024).

T1: human LRRC15 (full-length, on cells) (human, UniProt Q8TF66 22-581)
T1 construct: also called hLRRC15; endogenous LRRC15 of Hs294T
T1 sequence: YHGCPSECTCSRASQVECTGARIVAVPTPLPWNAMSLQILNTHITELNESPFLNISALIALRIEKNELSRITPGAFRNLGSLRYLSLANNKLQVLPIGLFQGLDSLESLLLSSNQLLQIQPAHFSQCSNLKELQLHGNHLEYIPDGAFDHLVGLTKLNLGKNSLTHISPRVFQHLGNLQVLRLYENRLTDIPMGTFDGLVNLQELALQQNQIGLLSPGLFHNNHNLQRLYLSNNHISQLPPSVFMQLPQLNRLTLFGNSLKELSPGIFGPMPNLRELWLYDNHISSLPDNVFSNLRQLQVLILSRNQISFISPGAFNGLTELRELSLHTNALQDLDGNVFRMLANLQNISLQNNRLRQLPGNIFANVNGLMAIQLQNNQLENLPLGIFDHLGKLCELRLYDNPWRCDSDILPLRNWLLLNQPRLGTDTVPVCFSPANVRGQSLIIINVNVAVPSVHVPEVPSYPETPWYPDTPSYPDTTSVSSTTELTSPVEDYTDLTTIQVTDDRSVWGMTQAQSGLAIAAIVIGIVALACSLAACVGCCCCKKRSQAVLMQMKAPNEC

T2: cynomolgus monkey LRRC15 extracellular domain expressed on HEK293α (pDisplay-cynoLRRC15 ECD) (cynomolgus monkey, UniProt Q8TF66 22-538 (human entry))
T2 construct: vector-derived parts not described
T2 chain: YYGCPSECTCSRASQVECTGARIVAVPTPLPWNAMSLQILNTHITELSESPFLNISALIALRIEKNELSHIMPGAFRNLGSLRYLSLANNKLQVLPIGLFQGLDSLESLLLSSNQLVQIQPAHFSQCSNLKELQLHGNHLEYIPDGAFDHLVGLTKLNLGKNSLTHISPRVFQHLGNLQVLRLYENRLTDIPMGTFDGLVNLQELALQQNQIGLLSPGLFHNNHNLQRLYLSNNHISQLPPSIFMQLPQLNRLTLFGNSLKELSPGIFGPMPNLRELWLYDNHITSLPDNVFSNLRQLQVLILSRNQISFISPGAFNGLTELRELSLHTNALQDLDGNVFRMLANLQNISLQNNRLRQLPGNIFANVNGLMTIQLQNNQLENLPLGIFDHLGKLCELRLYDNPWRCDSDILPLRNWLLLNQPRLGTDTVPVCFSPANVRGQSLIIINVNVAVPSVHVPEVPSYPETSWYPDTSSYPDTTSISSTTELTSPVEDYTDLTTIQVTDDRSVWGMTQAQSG

T3: human LRRC15 extracellular domain expressed on HEK293α (pDisplay-hLRRC15 ECD) (human, UniProt Q8TF66 22-538)
T3 construct: also called WT; human LRRC15 wild-type
T3 sequence: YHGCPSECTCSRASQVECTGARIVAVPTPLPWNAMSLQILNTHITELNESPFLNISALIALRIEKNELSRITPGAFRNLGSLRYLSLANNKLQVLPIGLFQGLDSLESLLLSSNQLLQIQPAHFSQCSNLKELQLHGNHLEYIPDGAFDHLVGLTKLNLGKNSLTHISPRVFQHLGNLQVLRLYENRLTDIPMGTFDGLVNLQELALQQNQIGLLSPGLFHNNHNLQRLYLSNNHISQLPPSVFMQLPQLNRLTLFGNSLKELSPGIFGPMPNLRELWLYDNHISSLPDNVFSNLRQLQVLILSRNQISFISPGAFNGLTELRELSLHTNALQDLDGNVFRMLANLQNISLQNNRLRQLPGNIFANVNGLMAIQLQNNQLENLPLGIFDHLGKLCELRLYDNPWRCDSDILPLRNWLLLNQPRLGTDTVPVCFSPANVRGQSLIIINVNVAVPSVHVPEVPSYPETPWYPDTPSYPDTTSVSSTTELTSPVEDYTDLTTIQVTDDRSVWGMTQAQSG

T4: human LRRC15-His protein (human, UniProt Q8TF66 22-538)
T4 construct: Recombinant, expressed in mammalian cells; also called human LRRC15 antigen; hLRRC15-His
T4 sequence: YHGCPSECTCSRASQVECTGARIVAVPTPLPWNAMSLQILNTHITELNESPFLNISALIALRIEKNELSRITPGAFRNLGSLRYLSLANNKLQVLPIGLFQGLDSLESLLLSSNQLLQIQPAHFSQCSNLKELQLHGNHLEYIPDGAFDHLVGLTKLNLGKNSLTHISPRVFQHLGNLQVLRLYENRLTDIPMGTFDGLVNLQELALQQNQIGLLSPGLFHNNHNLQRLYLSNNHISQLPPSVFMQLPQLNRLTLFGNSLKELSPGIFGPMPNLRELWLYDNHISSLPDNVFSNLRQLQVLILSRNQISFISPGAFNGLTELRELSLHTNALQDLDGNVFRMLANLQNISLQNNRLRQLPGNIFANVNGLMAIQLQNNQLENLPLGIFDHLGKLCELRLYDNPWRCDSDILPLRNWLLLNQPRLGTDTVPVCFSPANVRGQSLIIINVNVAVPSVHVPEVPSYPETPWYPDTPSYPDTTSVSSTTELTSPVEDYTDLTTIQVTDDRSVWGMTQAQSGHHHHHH


What was measured:
[1] = target: T1, human LRRC15 (full-length, on cells); assay: Cell-ELISA, hybridoma supernatant on HEK293α transfected with pcDNA3.1-hLRRC15
[2] = target: T2, cynomolgus monkey LRRC15 extracellular …; assay: flow cytometry, transfected HEK293α, 10 µg/mL
[3] = target: T3, human LRRC15 extracellular domain …; assay: flow cytometry, HEK293α expressing WT human LRRC15 ECD
[4] = target: T1, human LRRC15 (full-length, on cells); assay: flow cytometry, endogenous LRRC15 on human melanoma line Hs294T
[5] = target: T3, human LRRC15 extracellular domain …; assay: flow cytometry, transfected HEK293α, 10 µg/mL
human LRRC15-His protein = target: T4, human LRRC15-His protein; assay: SPR, Biacore T200; antibody captured by anti-human IgG (Fc), human LRRC15-His as analyte, 1:1 model

Binder	binding result [1]	binding result [2]	binding result [3]	binding result [4]	binding result [5]	Kd (human LRRC15-His protein) [nM]
rR024 antibody (antibody, rat IgG2b, V domains shown, Rat monoclonal antibody from hybridoma culture supernatant; rat IgG2b, kappa light chain; also called clone rR024) VH: EVQLVESNGALVQPGRSLKLSCAASGFTFRDYYMAWVRQAPSKGLEWVASIGFDESRTYYRDSVKGRFTISRDDVKSTLYLQLDSLRSEDTATYYCTRHGVSYYSGDNWFAYWGQGALVIVSS VL: DIVMTQSPSSLAVSAGETVIINCKSSQGLLYSGDQKNYLAWYQQKPGQSPKLLIYWASTRQSGVPDRFIGSGSGTDFTLTISSVQGEDLAIYYCQQYYDPPYTFGAGTKLELKR	binds					
H02L01 antibody (antibody, human IgG1, kappa, L234A L235A, V domains shown, Humanized anti-LRRC15 antibody, human IgG1 / kappa; also called hR024 (hR024 H02 + hR024 L01)) VH: EVQLVESGGGLVQPGGSLRLSCAASGFTFRDYYMAWVRQAPGKGLEWVSSIGFDESRTYYADSVKGRFTISRDDSKNTLYLQMNSLRAEDTAVYYCARHGVSYYSGDNWFAYWGQGTLVTVSS VL: DIQMTQSPSSLSASVGDRVTITCKSSQGLLYSGDQKNYLAWYQQKPGKAPKLLIYWASTRQSGVPSRFSGSGSGTDFTLTISSLQPEDFATYYCQQYYDPPYTFGQGTKVEIKR		binds	binds	binds		

Continued, values first:

binding result [1]	binding result [2]	binding result [3]	binding result [4]	binding result [5]	Kd (human LRRC15-His protein) [nM]	Binder
	binds		binds	binds		H09L03 antibody (antibody, human IgG1, kappa, L234A L235A, V domains shown, Humanized anti-LRRC15 antibody, human IgG1 / kappa; also called hR024 (hR024 H09 + hR024 L03)) VH: EVQLVESGGGLVQPGGSLRLSCAASGFTFRDYYMAWVRQAPGKGLEWVASIGFDESRTYYADSVKGRFTISRDDSKSTLYLQMNSLRAEDTAVYYCTRHGVSYYSGDNWFAYWGQGTLVTVSS VL: DIQMTQSPSSLSASVGDRVTITCKSSQGLLYSGDQKNYLAWYQQKPGKSPKLLIYWASTRQSGVPDRFSGSGSGTDFTLTISSLQPEDFATYYCQQYYDPPYTFGQGTKVEIKR
	binds		binds	binds		H02L01-V2 antibody (antibody, human IgG1, kappa, L234A L235A, V domains shown, Humanized anti-LRRC15 antibody, human IgG1 / kappa; also called hR024 (hR024 H02-V2 + hR024 L01)) VH: EVQLVESGGGLVQPGGSLRLSCAASGFTFRDYYMAWVRQAPGKGLEWVSSIGFDESRTYYADSVKGRFTISRDDSKNTLYLQMNSLRAEDTAVYYCARHGVSRYSGDNWFAYWGQGTLVTVSS VL: DIQMTQSPSSLSASVGDRVTITCKSSQGLLYSGDQKNYLAWYQQKPGKAPKLLIYWASTRQSGVPSRFSGSGSGTDFTLTISSLQPEDFATYYCQQYYDPPYTFGQGTKVEIKR
	binds				59.9	H02L01-V1 antibody (antibody, human IgG1, kappa, L234A L235A, V domains shown, Humanized anti-LRRC15 antibody, human IgG1 / kappa; also called hR024 (hR024 H02-V1 + hR024 L01)) VH: EVQLVESGGGLVQPGGSLRLSCAASGFTFRDYYMAWVRQAPGKGLEWVSSIGFDESRTYYADSVKGRFTISRDDSKNTLYLQMNSLRAEDTAVYYCARHGVSKYSGDNWFAYWGQGTLVTVSS VL: DIQMTQSPSSLSASVGDRVTITCKSSQGLLYSGDQKNYLAWYQQKPGKAPKLLIYWASTRQSGVPSRFSGSGSGTDFTLTISSLQPEDFATYYCQQYYDPPYTFGQGTKVEIKR
